From publication doi:10.1101/2024.04.24.590896 (bioRxiv, 2024)

B1: syntaxin 18 SNARE domain (aa 229-312) (domain or fragment)
chain: EEIQMFEQENQRLIGEMNSLFDEVRQIEGKVVEISRLQEIFTEKVLQQETEIDSIHQLVVGATENIKEGNEDIREAIKNNAGFR
B2: Sec20 SNARE domain (aa 133-198) (domain or fragment)
chain: QTSSSITESLMGISRMMSQQVQQSEEAMQTLVSSSRTLLDANEEFKSMSGTIQLGRKLITKYNRRE
B3: Use1 SNARE domain (aa 174-239) (domain or fragment)
chain: QRHQGLQEKLAEEMLGLARSLKTNTLAAQSVIKKDNQTLSHSLKMADQNLEKLKLESERLEQHAQK
B4: U_SNAP (Sec20, aa 133-198; Use1, aa 174-239) (other)
chain: QTSSSITESLMGISRMMSQQVQQSEEAMQTLVSSSRTLLDANEEFKSMSGTIQLGRKLITKYNRREGLSVSPSNKLKSSDAYKKAWGNNQDGVVASQPARVVDEREQMAISGGFIRRVTNDQRHQGLQEKLAEEMLGLARSLKTNTLAAQSVIKKDNQTLSHSLKMADQNLEKLKLESERLEQHAQK

Tests used:
[1] = target: synaptobrevin 2 (aa 1-96) (Rattus norvegicus, UniProt P63045 1-96); test: native gel or EMSA
Sequence of synaptobrevin 2 (aa 1-96) (P63045 1-96): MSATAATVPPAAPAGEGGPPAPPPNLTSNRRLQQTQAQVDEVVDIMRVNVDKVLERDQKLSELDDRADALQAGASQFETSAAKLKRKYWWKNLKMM

[2] = target: B1; test: SEC
[3] = target: B2; test: SEC
[4] = target: B1; test: native gel or EMSA + SEC

Binder: B1
binding result [1]: binds

Binder: B2
binding result [2]: binds

Binder: B3
binding result [2]: binds | binding result [3]: binds

Binder: B4
binding result [4]: binds
